From patent US20240277770A1 (Genentech, published 2024) come the findings set out here.

Test [1] deals with T1, HLA-A*02:01 (human).
T1 construct: whole, on cells; MHC class I on a monoallelic cell line (HMy2.C1R)
The test can be described thus: HLA-I IP and untargeted MS of monoallelic cells.

Test [2] has as its target T2, HLA-C*07:02 (human).
T2 construct: whole, on cells; MHC class I on a monoallelic cell line
Put plainly: HLA-I IP (W6/32) and targeted MS of monoallelic HMy2.C1R cells expressing the polyantigen cassette.

Test [3] concerns the target T3, HLA-C*07:01 (human).
T3 construct: whole, on cells; MHC class I on a monoallelic cell line
The test is described as above.

In test [4] the target is T4, HLA-C*06:02 (human).
T4 construct: whole, on cells; MHC class I on a monoallelic cell line
Described as above.

IMSDSNYVV: the binding result in test [1] was “binds”.

As to KRNSLALSL, the binding result in test [2], in test [3] and in test [4] was “binds” in each case.
